Experimental data: patent US20200270325A1 (Merck Sharp & Dohme, published 2020)
Numbered stars: 1 amine (or outer) side, 2 acyl side, 3 side chain; on linkers, the order of the positions; unused ones are H or OH. Square brackets hold non-standard residues; d marks the D form. Side chains are listed from the residue outwards. Ends that are not written are not given here. * marks the point of attachment. C16 diacid = O=C(O)CCCCCCCCCCCCCCC(=O)*; γGlu = O=C(O)[C@H](CCC(=O)[*:2])N[*:1]; Met(O2) = CS(=O)(=O)CC[C@H](N)C(=O)O; αMeD = C[C@](N)(CC(=O)O)C(=O)O; AEEA = NCCOCCOCC(=O)O; Aib = CC(C)(N)C(=O)O

B1: TP827 (peptide)
peptide: H[Aib]QGTFTSDYSKYLDARAAQK([AEEA-AEEA-γGlu-C16 diacid])FVQWL[Met(O2)][γGlu]T-NH2
modifications: N-terminus assumed
SMILES: CC(C)C[C@H](NC(=O)[C@H](Cc1ccc(O)cc1)NC(=O)[C@H](CCCCN)NC(=O)[C@H](CO)NC(=O)[C@H](Cc1ccc(O)cc1)NC(=O)[C@H](CC(=O)O)NC(=O)[C@H](CO)NC(=O)[C@@H](NC(=O)[C@H](Cc1ccccc1)NC(=O)[C@@H](NC(=O)CNC(=O)[C@H](CCC(N)=O)NC(=O)C(C)(C)NC(=O)[C@@H](N)Cc1c[nH]cn1)[C@@H](C)O)[C@@H](C)O)C(=O)N[C@@H](CC(=O)O)C(=O)N[C@@H](C)C(=O)N[C@@H](CCCNC(=N)N)C(=O)N[C@@H](C)C(=O)N[C@@H](C)C(=O)N[C@@H](CCC(N)=O)C(=O)N[C@@H](CCCCNC(=O)COCCOCCNC(=O)COCCOCCNC(=O)CC[C@H](NC(=O)CCCCCCCCCCCCCCC(=O)O)C(=O)O)C(=O)N[C@@H](Cc1ccccc1)C(=O)N[C@H](C(=O)N[C@@H](CCC(N)=O)C(=O)N[C@@H](Cc1c[nH]c2ccccc12)C(=O)N[C@@H](CC(C)C)C(=O)N[C@@H](CCS(C)(=O)=O)C(=O)N[C@@H](CCC(=O)N[C@H](C(N)=O)[C@@H](C)O)C(=O)O)C(C)C
B2: TP814 (peptide)
peptide: H[Aib]QGTFTSDYSKYLDARAAK([AEEA-AEEA-γGlu-C16 diacid])DFVQWL[Met(O2)]ET-NH2
modifications: N-terminus assumed
SMILES: CC(C)C[C@H](NC(=O)[C@H](Cc1ccc(O)cc1)NC(=O)[C@H](CCCCN)NC(=O)[C@H](CO)NC(=O)[C@H](Cc1ccc(O)cc1)NC(=O)[C@H](CC(=O)O)NC(=O)[C@H](CO)NC(=O)[C@@H](NC(=O)[C@H](Cc1ccccc1)NC(=O)[C@@H](NC(=O)CNC(=O)[C@H](CCC(N)=O)NC(=O)C(C)(C)NC(=O)[C@@H](N)Cc1c[nH]cn1)[C@@H](C)O)[C@@H](C)O)C(=O)N[C@@H](CC(=O)O)C(=O)N[C@@H](C)C(=O)N[C@@H](CCCNC(=N)N)C(=O)N[C@@H](C)C(=O)N[C@@H](C)C(=O)N[C@@H](CCCCNC(=O)COCCOCCNC(=O)COCCOCCNC(=O)CC[C@H](NC(=O)CCCCCCCCCCCCCCC(=O)O)C(=O)O)C(=O)N[C@@H](CC(=O)O)C(=O)N[C@@H](Cc1ccccc1)C(=O)N[C@H](C(=O)N[C@@H](CCC(N)=O)C(=O)N[C@@H](Cc1c[nH]c2ccccc12)C(=O)N[C@@H](CC(C)C)C(=O)N[C@@H](CCS(C)(=O)=O)C(=O)N[C@@H](CCC(=O)O)C(=O)N[C@H](C(N)=O)[C@@H](C)O)C(C)C
B3: TP825 (peptide)
peptide: H[Aib]QGTFTSDYSKYLDARAAQK([AEEA-AEEA-γGlu-C16 diacid])FVQWL[Met(O2)]ET-NH2
modifications: N-terminus assumed
SMILES: CC(C)C[C@H](NC(=O)[C@H](Cc1ccc(O)cc1)NC(=O)[C@H](CCCCN)NC(=O)[C@H](CO)NC(=O)[C@H](Cc1ccc(O)cc1)NC(=O)[C@H](CC(=O)O)NC(=O)[C@H](CO)NC(=O)[C@@H](NC(=O)[C@H](Cc1ccccc1)NC(=O)[C@@H](NC(=O)CNC(=O)[C@H](CCC(N)=O)NC(=O)C(C)(C)NC(=O)[C@@H](N)Cc1c[nH]cn1)[C@@H](C)O)[C@@H](C)O)C(=O)N[C@@H](CC(=O)O)C(=O)N[C@@H](C)C(=O)N[C@@H](CCCNC(=N)N)C(=O)N[C@@H](C)C(=O)N[C@@H](C)C(=O)N[C@@H](CCC(N)=O)C(=O)N[C@@H](CCCCNC(=O)COCCOCCNC(=O)COCCOCCNC(=O)CC[C@H](NC(=O)CCCCCCCCCCCCCCC(=O)O)C(=O)O)C(=O)N[C@@H](Cc1ccccc1)C(=O)N[C@H](C(=O)N[C@@H](CCC(N)=O)C(=O)N[C@@H](Cc1c[nH]c2ccccc12)C(=O)N[C@@H](CC(C)C)C(=O)N[C@@H](CCS(C)(=O)=O)C(=O)N[C@@H](CCC(=O)O)C(=O)N[C@H](C(N)=O)[C@@H](C)O)C(C)C
B4: TP826 (peptide)
peptide: H[Aib]QGTFTSDYSKYLDARAAK([AEEA-AEEA-γGlu-C16 diacid])DFVQWL[Met(O2)][γGlu]T-NH2
modifications: N-terminus assumed
SMILES: CC(C)C[C@H](NC(=O)[C@H](Cc1ccc(O)cc1)NC(=O)[C@H](CCCCN)NC(=O)[C@H](CO)NC(=O)[C@H](Cc1ccc(O)cc1)NC(=O)[C@H](CC(=O)O)NC(=O)[C@H](CO)NC(=O)[C@@H](NC(=O)[C@H](Cc1ccccc1)NC(=O)[C@@H](NC(=O)CNC(=O)[C@H](CCC(N)=O)NC(=O)C(C)(C)NC(=O)[C@@H](N)Cc1c[nH]cn1)[C@@H](C)O)[C@@H](C)O)C(=O)N[C@@H](CC(=O)O)C(=O)N[C@@H](C)C(=O)N[C@@H](CCCNC(=N)N)C(=O)N[C@@H](C)C(=O)N[C@@H](C)C(=O)N[C@@H](CCCCNC(=O)COCCOCCNC(=O)COCCOCCNC(=O)CC[C@H](NC(=O)CCCCCCCCCCCCCCC(=O)O)C(=O)O)C(=O)N[C@@H](CC(=O)O)C(=O)N[C@@H](Cc1ccccc1)C(=O)N[C@H](C(=O)N[C@@H](CCC(N)=O)C(=O)N[C@@H](Cc1c[nH]c2ccccc12)C(=O)N[C@@H](CC(C)C)C(=O)N[C@@H](CCS(C)(=O)=O)C(=O)N[C@@H](CCC(=O)N[C@H](C(N)=O)[C@@H](C)O)C(=O)O)C(C)C
B5: TP828 (peptide)
peptide: H[Aib]QGTFTSDYSKYLD[Aib]RAAQDFVK([AEEA-AEEA-γGlu-C16 diacid])WL[Met(O2)][γGlu]T-NH2
modifications: N-terminus assumed
SMILES: CC(C)C[C@H](NC(=O)[C@H](Cc1c[nH]c2ccccc12)NC(=O)[C@H](CCCCNC(=O)COCCOCCNC(=O)COCCOCCNC(=O)CC[C@H](NC(=O)CCCCCCCCCCCCCCC(=O)O)C(=O)O)NC(=O)[C@@H](NC(=O)[C@H](Cc1ccccc1)NC(=O)[C@H](CC(=O)O)NC(=O)[C@H](CCC(N)=O)NC(=O)[C@H](C)NC(=O)[C@H](C)NC(=O)[C@H](CCCNC(=N)N)NC(=O)C(C)(C)NC(=O)[C@H](CC(=O)O)NC(=O)[C@H](CC(C)C)NC(=O)[C@H](Cc1ccc(O)cc1)NC(=O)[C@H](CCCCN)NC(=O)[C@H](CO)NC(=O)[C@H](Cc1ccc(O)cc1)NC(=O)[C@H](CC(=O)O)NC(=O)[C@H](CO)NC(=O)[C@@H](NC(=O)[C@H](Cc1ccccc1)NC(=O)[C@@H](NC(=O)CNC(=O)[C@H](CCC(N)=O)NC(=O)C(C)(C)NC(=O)[C@@H](N)Cc1c[nH]cn1)[C@@H](C)O)[C@@H](C)O)C(C)C)C(=O)N[C@@H](CCS(C)(=O)=O)C(=O)N[C@@H](CCC(=O)N[C@H](C(N)=O)[C@@H](C)O)C(=O)O
B6: TP815 (peptide)
peptide: H[Aib]QGTFTSDYSKYLD[Aib]RAAQDFVK([AEEA-AEEA-γGlu-C16 diacid])WL[Met(O2)]ET-NH2
modifications: N-terminus assumed
SMILES: CC(C)C[C@H](NC(=O)[C@H](Cc1c[nH]c2ccccc12)NC(=O)[C@H](CCCCNC(=O)COCCOCCNC(=O)COCCOCCNC(=O)CC[C@H](NC(=O)CCCCCCCCCCCCCCC(=O)O)C(=O)O)NC(=O)[C@@H](NC(=O)[C@H](Cc1ccccc1)NC(=O)[C@H](CC(=O)O)NC(=O)[C@H](CCC(N)=O)NC(=O)[C@H](C)NC(=O)[C@H](C)NC(=O)[C@H](CCCNC(=N)N)NC(=O)C(C)(C)NC(=O)[C@H](CC(=O)O)NC(=O)[C@H](CC(C)C)NC(=O)[C@H](Cc1ccc(O)cc1)NC(=O)[C@H](CCCCN)NC(=O)[C@H](CO)NC(=O)[C@H](Cc1ccc(O)cc1)NC(=O)[C@H](CC(=O)O)NC(=O)[C@H](CO)NC(=O)[C@@H](NC(=O)[C@H](Cc1ccccc1)NC(=O)[C@@H](NC(=O)CNC(=O)[C@H](CCC(N)=O)NC(=O)C(C)(C)NC(=O)[C@@H](N)Cc1c[nH]cn1)[C@@H](C)O)[C@@H](C)O)C(C)C)C(=O)N[C@@H](CCS(C)(=O)=O)C(=O)N[C@@H](CCC(=O)O)C(=O)N[C@H](C(N)=O)[C@@H](C)O
B7: TP813 (peptide)
peptide: H[Aib]QGTFTSDYSKYLDARAAQEFVK([AEEA-AEEA-γGlu-C16 diacid])WL[Met(O2)]DT-NH2
modifications: N-terminus assumed
SMILES: CC(C)C[C@H](NC(=O)[C@H](Cc1ccc(O)cc1)NC(=O)[C@H](CCCCN)NC(=O)[C@H](CO)NC(=O)[C@H](Cc1ccc(O)cc1)NC(=O)[C@H](CC(=O)O)NC(=O)[C@H](CO)NC(=O)[C@@H](NC(=O)[C@H](Cc1ccccc1)NC(=O)[C@@H](NC(=O)CNC(=O)[C@H](CCC(N)=O)NC(=O)C(C)(C)NC(=O)[C@@H](N)Cc1c[nH]cn1)[C@@H](C)O)[C@@H](C)O)C(=O)N[C@@H](CC(=O)O)C(=O)N[C@@H](C)C(=O)N[C@@H](CCCNC(=N)N)C(=O)N[C@@H](C)C(=O)N[C@@H](C)C(=O)N[C@@H](CCC(N)=O)C(=O)N[C@@H](CCC(=O)O)C(=O)N[C@@H](Cc1ccccc1)C(=O)N[C@H](C(=O)N[C@@H](CCCCNC(=O)COCCOCCNC(=O)COCCOCCNC(=O)CC[C@H](NC(=O)CCCCCCCCCCCCCCC(=O)O)C(=O)O)C(=O)N[C@@H](Cc1c[nH]c2ccccc12)C(=O)N[C@@H](CC(C)C)C(=O)N[C@@H](CCS(C)(=O)=O)C(=O)N[C@@H](CC(=O)O)C(=O)N[C@H](C(N)=O)[C@@H](C)O)C(C)C

What was measured:
[1] = biological target: human GLP-1 receptor (GLP1R) (human, UniProt P43220 24-463); test: cell-based or functional assay
[2] = biological target: human Glucagon receptor (GCGR) (human, UniProt P47871 26-477); test: cell-based or functional assay
Sequence of human Glucagon receptor (GCGR) (P47871 26-477): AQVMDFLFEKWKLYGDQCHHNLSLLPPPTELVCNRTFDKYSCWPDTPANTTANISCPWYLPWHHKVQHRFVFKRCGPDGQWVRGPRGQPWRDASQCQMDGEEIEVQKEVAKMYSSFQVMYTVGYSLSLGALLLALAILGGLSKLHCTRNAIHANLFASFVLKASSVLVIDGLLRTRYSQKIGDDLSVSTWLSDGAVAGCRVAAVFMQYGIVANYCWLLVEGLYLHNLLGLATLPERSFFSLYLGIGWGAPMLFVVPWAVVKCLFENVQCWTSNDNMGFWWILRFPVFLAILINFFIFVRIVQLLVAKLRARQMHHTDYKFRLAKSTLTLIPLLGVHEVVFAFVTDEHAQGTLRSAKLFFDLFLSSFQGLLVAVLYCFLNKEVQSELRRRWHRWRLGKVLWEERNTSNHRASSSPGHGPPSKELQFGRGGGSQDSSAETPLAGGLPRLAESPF

Row | Binder | GLP1R EC50 human [1] [nM] | GCGR EC50 human [2] [nM]
1 | H[Aib]QGTFTSDYSKYLDERAAK([AEEA-AEEA-γGlu-C20‑OH])DFVQWL[Met(O2)][αMeD]T-NH2 [TP589] | 2.07 | 19.8
2 | H[Aib]QGTFTSDYSKYLD[Aib]RAAK([AEEA-AEEA-γGlu-C20‑OH])DFVQWL[Met(O2)]DT-NH2 [TP564] | 1.22 | 1.25
3 | B1 | 0.081 | 0.133
4 | B2 | 0.078 | 0.156
5 | B3 | 0.036 | 0.07
6 | B4 | 0.253 | 0.67
7 | B5 | 0.587 | 0.228
8 | B6 | 0.12 | 0.084
9 | B7 | 0.14 | 0.21
